# In US8003345B2, “Antioxidant pharmaceutical compound, method for producing polypeptide and method of cure” (Institute of Cell Biophysics Russian Academy of Sciences, priority 2002, dated 2011):
# Columns and labels:
# [1] = system: tracheal epithelium of rat after application of lipopolysaccharide; experiment: Inflammation of rat tracheal epithelium caused by lipopolysaccharide (LPS); type: in vivo
# [2] = system: Wistar line rats subjected to gamma-irradiation; experiment: Survival of rats after gamma-irradiation at a dose of 6 Gy; conditions: for number of rats survived: groups of 6 rats, intravenous before irradiation
# Method: The radioprotector properties of peroxiredoxin in experiments in vivo are determined on an example of protecting animals from the action of gamma-irradiation in a sublethal dose with an intensity of 6 Gy.
# Simultaneous irradiation of all animals (Wistar line rats weighing 200 grams) was carried out on a GUBE apparatus. The exposure dose was 6 Gy. The rats were divided into two groups. The first group of the animals (n=6) was used for control. The animals of the second group (n=6) 30-60 minutes before the irradiation were administered intravenously with 1 mg of peroxiredoxin Prx VI (1 ml of physiological solution at the peroxiredoxin concentration of 1 μg/ml). After the irradiation the animals were kept in common premises with sufficient amount of food, illumination and ventilation. For histological investigation animals with symptoms of worsened general conditions were chose from each group.
# [3] = system: tracheal epithelium of rat after application of lipopolysaccharide; experiment: Inflammation of rat tracheal epithelium caused by lipopolysaccharide (LPS); type: in vivo; remark: listed apart in the source
# Method: The therapeutic properties of peroxiredoxin Prx VI in treating the upper respiratory tract of rat immediately after the application of LPS were checked on a group of 4 Wistar line rats weighing 150-200 grams. The application of LPS was carried out in the following manner. The rats were anesthetized with hexenal, and 100 μl of a lipopolysaccharide solution were introduced through a catheter (the lipopolysaccharide concentration was from 10^−9 to 10^−11 mg/ml, the total number of the used animals was 20). After the application of the lipopolysaccharide, the rats were maintained for a definite period of time (1 hour, 3 hours, 6 hours, 7 hours, 9 hours), then narcotized with hexenal (300 mg/kg weight), and a sample of the tracheal epithelial tissue was isolated. For histochemical investigations the isolated sample was placed into a fixing solution containing 2% of formaldehyde and 0.5% of glutaraldehyde. The tissue was dehydrated by sequential routing through ethyl alcohol with increasing concentration (40-100%). The tissue was embedded into LR white resin. The resin was polymerized at room temperature. 0.5 em-thick sections were made on an LKB ultratome (Sweden), using glass knives. The sections were stained with a hematoxylin-eosine and analyzed under a light microscope.
# For biochemical investigations we scraped the epithelium with a thin spatula, washed off the scrape with physiological solution and centrifugated at 10000 g for 15 min. The concentration of hydrogen peroxide was by the luminescence method. […] After LPS, application of a solution of a composition based on peroxiredoxin Prx VI into the trachea was carried out. Preliminarily the rats were narcotized by intraperitoneal administration of hexenal (70 mg/kg), the animals were fixed on an operating table, and under visual control with the aid of a binocular lens, through a catheter of 1 mm in diameter, peroxiredoxin solution (20 to 100 μl) was introduced into the trachea. The peroxiredoxin concentration was from 0.5 to 5.0 mg/ml. A 0.9% solution of NaCl was used as the solvent. The application of the solution of the composition was carried out once, immediately after the application of LPS. The application of pure solvent, solutions of serum albumin (10 mg/ml) and of glutathione (10 mM) were used as control.
# Histological investigation of the trachea was carried out 24 hrs after the LPS application.
# [4] = system: skin cuts of rats; experiment: Treating skin wounds (cuts) in rats; type: in vivo, rat; conditions: in 5 days; 0.5 mg/ml in 0.15 M NaCl, bandages changed once a day; against control; FIG. 10
# Method: Rats were preliminarily narcotized by intraperitoneal introduction of hexenal (70 mg/kg). The animals were fixed on an operating table, and then 2-3 mm deep and 1 cm long cuts were made in the skin of both paws with the help of a razor blade. Control cuts were irrigated with physiological solution and a bactericidal plaster was applied; in the case of using peroxiredoxin, the wound was irrigated with a solution of recombinant Prx Vlhum or of its fragment ΔPrx Vlhum in 0.15 M NaCl in 0.5 mg/ml concentration, and a gauze bandage soaked with the same solutions was applied. The bandages were changed once a day.
molecule,measurement,setting,value
"Prx VIhum: recombinant full-size human peroxiredoxin Prx VI, 224 amino acids (SEQ ID NO: 1), produced in E.coli (protein) MPGGLLLGDVAPNFEANTTVGRIRFHDFLGDSWGILFSHPRDFTPVCTTELGRAAKLAPEFAKRNVKLIALSIDSVEDHLAWSKDINAYNCEEPTEKLPFPIIDDRNRELAILLGMLDPAEKDEKGMPVTARVVFVFGPDKKLKLSILYPATTGRNFDEILRVVISLQLTAEKRVATPVDWKDGDSVMVLPTIPEEEAKKLFPKGVFTKELPSGKKYLRYTPQP",Integrity of tracheal epithelium (according to histological data),[1]; Treatment 24 hours later for 5 days and the integrity of epithelium 2 weeks later,80%
same,restoration of the epithelial tissue,"[1]; after 2 weeks, single application into the trachea immediately after LPS, FIG. 9",almost complete restoration of the epithelial tissue
same,number of rats survived,"[2]; 3 months, 6 Gy",6
same,number of rats survived,"[2]; 6 months, 6 Gy",5
same,number of rats survived,"[2]; 12 months, 6 Gy",4
same,number of rats survived,"[2]; 15 months, 6 Gy",4
same,mortality of the rats,"[2]; administered before irradiation, 6 Gy, versus control group",essentially lower than in the control group
same,general condition of the survived animals,"[2]; one year after the irradiation, compared with the control group",differed markedly in favor of the second group
same,number of irradiation-associated malignant neoplasms,"[2]; single injection into a vein 30 minutes before irradiation, 6 Gy",diminish the number of irradiation -associated malignant neoplasms
same,preservation of the tracheal epithelium,"[3]; 24 hrs after LPS, application immediately after the LPS, FIG. 9B",Complete preservation of the epithelium
same,Integrity of tracheal epithelium (according to histological data),[3]; Time after the action of LPS: 1 hour,90%
same,Integrity of tracheal epithelium (according to histological data),[3]; Time after the action of LPS: 3 hours,80%
same,Integrity of tracheal epithelium (according to histological data),[3]; Time after the action of LPS: 6 hours,65%
same,healing of the wound,[4],almost complete healing of the wound
